# Calls of active or inactive are those of the source. The rule behind the calls is not given here.
# Tests used:
# Pseudomonas aeruginosa [1] = experiment: Inhibition of Pseudomonas aeruginosa Metallo-beta-lactamase assessed as potentiation of piperacillin antimicrobial activity
# Pseudomonas aeruginosa [2] = experiment: Inhibition of Pseudomonas aeruginosa Metallo-beta-lactamase assessed as potentiation of aztreonam antimicrobial activity
# Pseudomonas aeruginosa [3] = experiment: Inhibition of Pseudomonas aeruginosa Metallo-beta-lactamase assessed as decrease in biapenem resistance rate at 32 ug/ml
# Pseudomonas aeruginosa [4] = experiment: Inhibition of Pseudomonas aeruginosa Metallo-beta-lactamase assessed as increase in biapenem susceptible rate at 32 ug/ml; set-up: scale not given: the % may be the effect or the level left
# [5] = tested on: C[C@@H](O)[C@H]1C(=O)N2C(C(=O)[O-])=C(SC3Cn4cnc[n+]4C3)[C@H](C)[C@H]12; experiment: (§1) Ratio of Kcat to Km for Pseudomonas aeruginosa beta-lactamaseVIM-2 by UV spectrophotometric analysis
# [6] = tested on: C[C@@H](O)[C@H]1C(=O)N2C(C(=O)O)=C(SCCNC=N)C[C@H]12; experiment: as §1
# [7] = tested on: C[C@@H](O)[C@H]1C(=O)N2C(C(=O)[O-])=C(SC3Cn4cnc[n+]4C3)[C@H](C)[C@H]12; experiment: (§2) Activity of Pseudomonas aeruginosa beta-lactamase VIM-2 by UV spectrophotometric analysis
# [8] = tested on: C[C@@H](O)[C@H]1C(=O)N2C(C(=O)O)=C(SCCNC=N)C[C@H]12; experiment: as §2
Molecule,Activity (Pseudomonas aeruginosa [1]),Activity (Pseudomonas aeruginosa [2]),inhibition (Pseudomonas aeruginosa [3]) [%],Activity (Pseudomonas aeruginosa [4]) [%],kcat/Km [5] [M⁻¹ s⁻¹],kcat/Km [6] [M⁻¹ s⁻¹],Km [7] [µM],kcat [7] [s⁻¹],Km [8] [µM],kcat [8] [s⁻¹]
CC/C(C(=O)O)=C(\CC)C(=O)O,inactive,inactive,40,22,–,–,–,–,–,–
Beta-lactamase VIM-2 (Pseudomonas aeruginosa) (from UniProt Q9K2N0),–,–,–,–,500000,1.2e+07,24.7,12.4,8.5,98.9

# Reference: ChEMBL document CHEMBL1671717, “In vitro potentiation of carbapenems with ME1071, a novel metallo-beta-lactamase inhibitor, against metallo-beta-lactamase- producing Pseudomonas aeruginosa clinical isolates” (Antimicrob Agents Chemother, 2010)
